Our source for the Kd values is PMC12354141.

Chain of FcγRIIIa/CD16a 158V, His-tagged (human) (P08637 17-208): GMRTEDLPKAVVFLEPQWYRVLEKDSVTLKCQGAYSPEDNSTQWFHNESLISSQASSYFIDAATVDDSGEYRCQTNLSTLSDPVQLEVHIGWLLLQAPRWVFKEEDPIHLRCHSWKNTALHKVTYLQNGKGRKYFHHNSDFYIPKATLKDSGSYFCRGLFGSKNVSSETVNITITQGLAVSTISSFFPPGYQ

One test addresses human neonatal Fc receptor (FcRn), His-tagged (human) (UniProt P55899). Briefly: BLI. In general terms: BLI is a label-free optical method that tracks binding on a fibre tip over time.
Chain of UniProt P55899 (P55899 24-297, chain 1 of 2): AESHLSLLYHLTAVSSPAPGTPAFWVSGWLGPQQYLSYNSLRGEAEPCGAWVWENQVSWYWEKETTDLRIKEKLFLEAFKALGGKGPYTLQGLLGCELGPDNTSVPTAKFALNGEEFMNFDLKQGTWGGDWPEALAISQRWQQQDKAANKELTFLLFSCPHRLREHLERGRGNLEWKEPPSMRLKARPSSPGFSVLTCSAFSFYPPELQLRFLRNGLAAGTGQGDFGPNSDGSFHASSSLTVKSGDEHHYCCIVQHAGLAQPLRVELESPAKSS
Chain of UniProt P55899 (P61769 21-119, chain 2 of 2, further chain): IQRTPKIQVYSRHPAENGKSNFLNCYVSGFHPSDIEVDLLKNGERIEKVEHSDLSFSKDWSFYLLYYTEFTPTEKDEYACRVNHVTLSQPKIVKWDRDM
Take “EU Prolia^® (denosumab reference drug product, EU-licensed) (antibody)”: the Kd (as a rule, the free concentration of one partner at which half of the binding sites on the other are occupied at equilibrium, for simple one-to-one binding) lay in the range of 17.7 to 38.5 nM.
“EU Xgeva^® (denosumab reference drug product, EU-licensed) (antibody)” showed a Kd of 14.7 to 36.2 nM.
Still for that read-out and setting: then “RGB-14-P (Gedeon Richter's proposed denosumab biosimilar to Prolia^®) (antibody)”, with 17.2 to 30.1 nM; and “RGB-14-X (Gedeon Richter's proposed denosumab biosimilar to Xgeva^®) (antibody)”, with 21.6 to 27.2 nM; and “US Prolia^® (denosumab reference drug product, US-licensed) (antibody)”, with 19.7 to 29.2 nM.
Still for that read-out and setting: then “US Xgeva^® (denosumab reference drug product, US-licensed) (antibody)”, with 18.1 to 33.5 nM.

A further test concerns the target FcγRIIIa/CD16a 158V, His-tagged (human). Briefly: BLI.
As for “denosumab (as such; mean over the products) (antibody)”, the Kd is 15000 nM.
